Test: soluble on expression in E. coli; label from the status in PepcDB or PDB records

| Sequence | soluble on expression in E. coli |
| --- | --- |
| AIREFNTKEKVFNEFTAVFDVLNHLPAFAKLHLANSMSVRYANTLGISQRNAEVFANRGTSGIDGVISTAYGYALKTSQLVTIITGDLAFFYDRNAFWNNYKPSNLRVVLLNNHGGGIFRMIDGPSALPELDELFETKQTLSARYLATEHGLEYTLCKNLNGLNQALESFFQPSMFGKILEIETDSVKN | not soluble |
| MGSDKIHHHHHHMGVMKTPGVYIVEKNAFPNSVVEVATAVPAFIGFTQKAINGNKSLLNKPWRITSMAEFRRYYGEAPEPEFEIAEKPADSLEDAAIVMGDKSYVISQSNTKYLLYYSMMLFFQNGGGPCYIVSVGNYTNDVEAAKLLAGIPTLLKEQEPTMLAIPEAILLAEDDCISVQQASLAHCGGVMRNRVAILDVWNGHLDRQDPSGDCIESFRSKLGINYLDFSSAYYPWLHTTIVQDSDLSFKNIANTDVLIGLLKEEVTASFTDLDGLTDDQLASPSNKLRVAKRDQMLTEVDSLATVAGDAQIVLLNKTLSSMSPLYMSILLDIKGKLNLLPPSACMAGIYTMVDNARGVWKAPANVSLNAVVSPAVNISHDEQEDLNVTTQGKSINAIRTFIGEGTLVWGARTLDGNSLDWRYISVRRTMIMLEESIRLAAKAYVFEPNTANTWTTLNSMITNFLTGIWKRGGLAGSVPADAFSVSVGLGSTMTSEDILEGILRITVLVAVTRPAEFIEITFQQQMQKS | not soluble |
| MAHHHHHHMEKYEFPEDYVNPRNIPRIAYIPDVAAYVSNGGGADTVISNLLMESSKYEHMEKRLVSSLANLDYKIPTIKKTLNSLEFLQKQLEEAEQQEEDGKRAGIRSYYCLTDSVFGEAIVRPQKTVHLWMGAKVMVEYTFEEASALLKKNLSNAEVNMRNTKEDLAWLQEQITNLQINISRVYNYDLKNKRAKD | not soluble |
| MAHHHHHHMPGSELISGGWFREENDQWPGQAMSLRVEKVLYDAPTKFQHLTIFESDPKGPWGTVMALDGCIQVTDYDEFVYHEVLGHTSLCSHPKPERVLIIGGGDGGVLREVLRHGTVEHCDLVDIDGEVMEQSKQHFPQISRSLADPRATVRVGDGLAFVRQTPDNTYDVVIIDTTDPAGPASKLFGEAFYKDVLRILKPDGICCNQGESIWLDLELIEKMSRFIRETGFASVQYALMHVPTYPCGSIGTLVCSKKAGVDVTKPLRPVEDMPFAKDLKYYDSEMHKASFALPRFARHINNSE | soluble |
| APNVDLHCHSTVSDGSMPPAAVARRAHANGVDVWALTDHDEIGGVAEAAQAAAALGMRFVAGVEISVTWAGLTVHIVGLRVDPANEALVQGLRDTRAGRAARAVQIGERLAGLGMPGAYEGALPFAGNPELISRTHFARFLVEAGYCPDVQTVFNKYLGDDCPGHVPMQWASLAEAVGWIRGAGGCAVIAHPGRYKYSPMQFDALYDEFLQLGGTGIEVVTGSHTSEEARRYAEVARRHGFLASRGSDFHSPTESRVDLGRLPPLPPDLKPVWHDW | not soluble |
| MKKLLFFILILFGVLSVQSLANGCSAQICTCPGGGYVTTGQYCPVYNNNTPSQPVLTKWYAFSYDKNKNIYGVGTGYDKKTAQNEALKNCGTSECKIEKSQKIPGGISLAAVSSNGVMVTYSSFGSSTWEQYEKRIDNLIKKCKAKGGSNCKLVFDSAYLYRKDKNLGY | not soluble |
| MKGSTIGTETKECGKETDFCYNGTADISSFSKFQKAGCNTVICQFHANKCFEQNVSGQLLTFCCCNTDDLCNGGAVTDSGSLFDRGLSVLKGLVSAGKK | not soluble |
| MTTYTSIANVIKERRSVRTFTDKAVEKDLLIELLNDATWAPNHKHREPWNCKLYIGEGRKKLVDAVLNSFTEEERAKRGKILSDRFLSTPAQIVVYMNEDPRQIQRDEDYAATCAFMQNFQLLAWERGLGCVWKSGGLNYNPLFIEGIGLTRGQRIVGILHIGYFDKAPEGKARTPITEKMEIIEG | soluble |
| MERKLGISLYPEHSTKEKDMAYISAAARHGFSRIFTCLLSVNRPKEEIVAEFKEIINHAKDNNMEVILDVAPAVFDQLGISYSDLSFFAELGADGIRLDVGFDGLTEAKMTNNPYGLKIELNVSNDIAYLENILSHQANKSALIGCHNFYPQKFTGLPYDYFIRCSERFKKHGIRSAAFITSHVANIGPWDINDGLCTLEEHRNLPIEVQAKHLWATGLIDDVIIGNAYASEEELEKLGNLNRYMLQLKVHFVDEATEVEKRATLQELHVRRGDITEYMVRSTEVRKKYKDYDFPVRESVLQERGQVVIGNNSFGKYKGELQIILKEMPIDERKNIVGTIAEEELFLLDYVGAWTQFTCVE | soluble |
| APRSVAMVVPQGSDIRQLSDLRGKRIALNKGSNVHWLLLQILEDAGLGLNDVRVVYTPPKYPLTASDYLAVDAWMMWDPLLSDAEHTGELRVVASGEGRVNNHQFYLSRRDYLAQHGDIMRRLLTELTHTGQFIDSHRGEAARLLSAELGI | not soluble |
| SQNNEIIKPAKYFSELEKSILLALVEKYKYVLECKKSDARTIALKQRTWQALAHEYNSQPSVSLRDFKQLKKCWENIKARTKKIMAHERREKVKRSVSPLLSTHVLGKEKIASMLPEQLYFLQSPPEEEPEYHPDASAQESFAVSNRELCDDEKEFIHFPVCEGTSQPEPSCSAVRITANKNYRSKTSQEGALKKMHEEEHHQQMSILQLQLIQMNEVHVAKIQQIERECEMAEEEHRIKMEVLNKKKMYWERKLQTFTKEWPVSSFNRPFPNSP | soluble |
| EKKRIESLINNMYDPVIGLDENLKILFVNEQAIKIIGISQEELIGHYTQELAIKNDLVRTLVQDLMVAENTPSNKAIPIKIYSNNKEGYFEKEILHISVTPTGEQVKQLIGHVIILRNIT | not soluble |
| AHHHHHHGSKEKRKYFMAHRIGVIQRSKIRELFERASKMENVISLGIGEPDFDTPNNIKEAAKRALDEGWTHYTPNAGIPELREAIAEYYKKFYGIDVEVDNVLVTAGAYEATYLAFETMLEQGDEVIIPDPAFVCYVEDAKLAEAKPIRLPLREENDFKPDIDELLERITKRTRMIVINYPNNPTGAVLDKETAKAIADVAEDYNIYILSDEPYEHFLYDDAKHYPMIKFAPDNTILANSFSKTFAMTGWRLGFVIAPTQIIREMIKLHAYIIGNVASFVQVAGIEALRSKESWKAVEEMRKEYNERRKLVLQRLRKMPYIKVREPKGAFYVFPNISETEMSSEEFSEWLLEKAKVVVIPGTAFGENGEGYVRISYATSREKLIEAMDRIEKALEEI | soluble |
| MGELWGNGGGCYSPVPPVMIPFMAYYEKRGDAWRAQIRRKGYPTLSATFDTKAEAQRWAAELEGDMSRARFVDVREAEATSLATALERYESEVTESKKGAKQERVRIKKWMESKFAGKSLASLRSSDMASYRDAEIKAGRSTATVRLDLAVISHLYTVATKDWGIEGLTNPCRALRMPKGSKQRERRPTADELKSLYKAAGEISPELPVIIELAVETAMRRSELVTLRKDQIQGKVAFLEDTKNGERRSVPLSSRARELIEGVPAPIKGGPLFRLKADTVSNYFPLACEKANIQGLRLHDLRHEATSRLFERGFTMMEVASITGHKTLAMLKRYTHLSPQDLAEKLG | not soluble |
| MTSLVAYGSDSEGEDDDFFGKPTTEKEETTKNAEKEKEEESEKIAESDEKPTISSFFFSGDDDKAGSSDSDDSEGESVGPKKKRRSGESVTELDKEFTSSIFDNDYAREERMNARMLSRHVDLSDKPSEKERKKSKFTCKNYLKGKCRFGDKCRFSHPVHNRSSDAVNEVSISSEAKFYTTETPEAQVFHSKKFKSSAGQ | not soluble |
| MGDQLDAVEVQAISPDGEITVKLGTGDAVDVQFKSDEYFKSVPHETLSHQLGRALTLLAVGRIRKRHQILEAEGFEVYGEDDAHWDKRVRVFREKRAQVKAAGRSPKRHIAIATVGLRDFKVRFERDVTRRLSRSEFSGEFGGAVAAVISEYSAQMTQLKTAMFT | not soluble |
| MATRFKGLSAFPITPADEAGRVDIEAFSALIARLDAAEVDSVGILGSTGIYMYLTREERRRAIEAAATILRGRRTLMAGIGALRTDEAVALAKDAEAAGADALLLAPVSYTPLTQEEAYHHFAAVAGATALPLAIYNNPTTTRFTFSDELLVRLAYIPNIRAIKMPLPADADYAGELARLRPKLSDDFAIGYSGDWGCTDATLAGGDTWYSVVAGLLPVPALQLMRAAQAGNAEEAKRLDATFQPLWALFKEFGSIRVIYAAANILSLTVSEPPRPILPLTSAERQRVEEALEALSALETAP | not soluble |
| MPPDDPSGRHGPRIESFLSKVPVVSSNPLVCPYARKCTYGNKCKFYHPERANGQHMSVTERLMKENQQKKSLGAVKSMQYEMFKNKHAALSRTQSLNVVKQLTENMSQLPPTPESPMQMPRQHMQLQQANSAPWQQHTVVQRHGSSPLTPVNRQMNVYPDMYNMSQQQNHQVLPNQHGVIGGQRPPKMTTTVSQTHLFAPSTAVWGHSELSVGPVNTGSDESLAEVRSRVHFHLCNIFPHDFVESVMAANPEEVNAPVLCELIIRAQKEYRK | not soluble |
| MGSDKIHHHHHHMIYIGLPQWSHPKWVRLGITSLEEYARHFNCVEGNTTLYALPKPEIVARWYEQTHDDFRFCFKFPATISHQAALRHCDELSSEFFARLAPLASRIGQYWLQLPATFGPRDLPALWHFLDGLPKDFTYGVEVRHPEFFAKEEAEQQLNRGLHERNVNRVILDSRPVHSAAATSPAMIDAQQKKPKVPVHAVMTARQPMVRFIGGDDMAHNRELFRVWLQTLAKWHQSGTPWLFLHTPDIAFAPALVDTLWGDLRAALPAAGNAPSIPQQSSLF | not soluble |
| MSFFNPPANSNHGYNDDVNTGYNARMHSKLAEREGFHLGNGSDEPRTLYVGNLDSTVTEDFIATLFNQIGSVTKTKVIFDGSNDPYAFVEFSDHGQASQALQTMNKRLLLDREMKVNWAVEPGQQQSKIDTTRHFHVFVGDLSSEVDNQKLREAFQPFGDVSDAKVIRDTNTTKSKGYGFVSYPKREEAERAIEQMNGQWLGRRTIRTNWATRKPGDQEKPSHYNEKSYDEIYNQTSGDNTSVYVGNIASLTEDEIRQGFASFGRITEVRIFKMQGYAFVKFDNKDAAAKAIVQMNNQDVGGQLVRCSWGKTGDTGKTPGGSYGYGYGNSSSGGNSQPYSGYGGGGAYGGGQGGGGHGGPGQQQSNANSQYWQYYAQYYNNPQLMQQWSNYWQQQGGAPQQQNSGGHQ | not soluble |
| MARKGTTPWHESREMHTQDDADSSLKEQEKTTNKKEQTTAPPEKKLPTIPGKLPKRSVEPPEESRDQKPAGNKPNLKKSPSNPRIPPGGSHPRKKPKVPNRDPSGKHVNSDKKKPSAEAHDKESLSSPPQTDAGKETTKESASTYGASWKSSKPTLKADLKAMEDYITKMPNFHGYICREDAAQILKHPGDWLVRLSVPPSNDQDKKNKAQNLAKSVERTKGHKSTMQKVFVISVLCKGKALSPAKSNNRNLVIKTNNGKFSIDSVHWLVKLKDLFSHYQGTSAVHKNGEFQLLNPISLSKWEFQHEDTELLAKKLGEGAFGEVRVGRLTTKDPKKKLVEVAVKMLKSSADSVTRDQVEELLHETRIMRKLDHPNVLRSYGVAVLREPLYLMIELCSNGALREYLKENHKTITLADKINFVLGSARGVAYLHSQRILHRDLAVRNILLTEDKTPKVSDFGLAELTDRYEMKEHCKIPVRYLAPETLELFIFTPKTDVFSFGCVIWEIYENGQQPHDGKNAQTIRAQVKKREFLKLSSSAPEALRRLVAEKVFVADPENRCSMTSIVQCVETAEKTVK | soluble |

Source: the DeepSol protein solubility set
